Target: T1, antisense peptide IPPKYW
T1 chain: IPPKYW
Experiment: tryptophan fluorescence titration

B1: Met-enkephalin (peptide)
chain: YGGFM
In the case of B1, the Kd is reported as 19 µM.

Reference: article PMC6270943 (2014)
